Experimental findings from article PMC5286394, “Architecture of the yeast Elongator complex” (EMBO Reports, 2016) are described below.

Broadly, the Kd is the constant that tells how readily two partners part at equilibrium. Low readings indicate tighter binding, high ones weaker binding.

Sequences and labels used below:
T1: GST-tagged full-length Elp1 (S. cerevisiae, UniProt Q06706 1-1349)
T1 construct: Elp1, Elongator subunit 1, S. cerevisiae; also called GST-Elp1; source: E. coli BL21 pSarRare, purified (NiNTA, S200 gel filtration); not shown: His6, N-terminal, kept; GST, N-terminal, kept
T1 sequence (looked up): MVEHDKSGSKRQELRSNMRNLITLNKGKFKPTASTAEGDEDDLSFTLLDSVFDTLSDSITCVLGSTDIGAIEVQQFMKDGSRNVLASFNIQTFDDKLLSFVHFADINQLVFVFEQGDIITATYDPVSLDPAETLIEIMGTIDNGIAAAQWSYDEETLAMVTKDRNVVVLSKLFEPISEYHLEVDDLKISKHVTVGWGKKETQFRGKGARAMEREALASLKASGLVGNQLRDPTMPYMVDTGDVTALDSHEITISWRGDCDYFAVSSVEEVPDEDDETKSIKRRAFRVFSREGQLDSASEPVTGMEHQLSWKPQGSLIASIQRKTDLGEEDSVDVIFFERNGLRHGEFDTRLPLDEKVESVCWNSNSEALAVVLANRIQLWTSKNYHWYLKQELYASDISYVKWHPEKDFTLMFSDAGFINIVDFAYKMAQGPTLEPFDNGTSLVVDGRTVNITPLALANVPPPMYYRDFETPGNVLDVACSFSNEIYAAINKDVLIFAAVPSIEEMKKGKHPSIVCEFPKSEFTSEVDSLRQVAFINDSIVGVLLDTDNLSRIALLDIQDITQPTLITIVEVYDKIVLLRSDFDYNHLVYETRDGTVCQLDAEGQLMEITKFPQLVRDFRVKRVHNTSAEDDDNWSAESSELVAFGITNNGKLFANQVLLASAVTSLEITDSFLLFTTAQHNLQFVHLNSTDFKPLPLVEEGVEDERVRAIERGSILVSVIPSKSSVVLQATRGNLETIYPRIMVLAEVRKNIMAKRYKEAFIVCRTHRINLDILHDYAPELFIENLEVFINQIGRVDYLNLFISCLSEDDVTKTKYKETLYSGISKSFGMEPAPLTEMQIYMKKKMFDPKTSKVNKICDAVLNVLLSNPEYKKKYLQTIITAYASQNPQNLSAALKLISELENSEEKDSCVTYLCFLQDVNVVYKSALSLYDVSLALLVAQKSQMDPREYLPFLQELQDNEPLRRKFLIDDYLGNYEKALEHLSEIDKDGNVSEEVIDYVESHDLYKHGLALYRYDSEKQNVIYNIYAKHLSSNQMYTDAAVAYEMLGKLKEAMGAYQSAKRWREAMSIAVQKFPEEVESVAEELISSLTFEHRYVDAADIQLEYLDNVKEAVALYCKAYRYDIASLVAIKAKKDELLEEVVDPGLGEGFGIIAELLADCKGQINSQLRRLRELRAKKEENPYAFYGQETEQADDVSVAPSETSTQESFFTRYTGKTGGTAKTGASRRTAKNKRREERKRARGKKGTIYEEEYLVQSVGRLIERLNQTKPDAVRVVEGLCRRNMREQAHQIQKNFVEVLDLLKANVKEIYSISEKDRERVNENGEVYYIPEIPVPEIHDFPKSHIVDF

T2: endogenously TAP-tagged Elp1 (S. cerevisiae (endogenous in strain …, UniProt Q06706 1-1349))
T2 construct: Elp1, S. cerevisiae, endogenous protein with TAP tag (Elp1-TAP::TRP1); also called Elp1-TAP
T2 sequence (looked up): T1 sequence (looked up)

T3: purified N-terminal region of Elp1 (S. cerevisiae)
T3 chain: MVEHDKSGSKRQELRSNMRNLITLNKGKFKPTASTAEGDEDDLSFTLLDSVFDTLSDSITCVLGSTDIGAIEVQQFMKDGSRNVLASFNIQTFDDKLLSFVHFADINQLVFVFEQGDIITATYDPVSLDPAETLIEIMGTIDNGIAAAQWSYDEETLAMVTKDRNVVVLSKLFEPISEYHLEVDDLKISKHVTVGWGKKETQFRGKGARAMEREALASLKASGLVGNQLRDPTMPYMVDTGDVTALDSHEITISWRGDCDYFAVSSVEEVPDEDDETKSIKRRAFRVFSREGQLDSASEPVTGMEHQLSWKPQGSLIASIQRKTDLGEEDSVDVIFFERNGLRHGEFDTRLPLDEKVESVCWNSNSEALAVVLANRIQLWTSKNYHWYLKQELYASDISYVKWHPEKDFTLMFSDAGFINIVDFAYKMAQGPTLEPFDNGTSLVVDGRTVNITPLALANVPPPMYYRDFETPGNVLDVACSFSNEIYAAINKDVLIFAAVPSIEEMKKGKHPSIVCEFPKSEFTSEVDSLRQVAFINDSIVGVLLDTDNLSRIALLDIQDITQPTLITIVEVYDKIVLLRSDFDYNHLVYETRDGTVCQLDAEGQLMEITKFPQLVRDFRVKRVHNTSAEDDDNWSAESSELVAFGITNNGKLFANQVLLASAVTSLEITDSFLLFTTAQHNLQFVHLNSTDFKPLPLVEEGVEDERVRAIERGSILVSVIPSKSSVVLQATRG

B1: Full-length His6-tagged ScElp3, refolded and anaerobically reconstituted (enzyme, S. cerevisiae, UniProt Q02908 1-557, looked up)
chain: MARHGKGPKTNKKKLAPEKERFIQCCADITLELTDSLTSGTTREINLNGLITKYSKKYKLKQQPRLTDIINSIPDQYKKYLLPKLKAKPVRTASGIAVVAVMCKPHRCPHIAYTGNICVYCPGGPDSDFEYSTQSYTGYEPTSMRAIRARYDPYEQARGRVEQLKQLGHSIDKVEYVLMGGTFMSLPKEYREDFIVKLHNALSGFNGNDIDEAILYSQQSLTKCVGITIETRPDYCTQTHLDDMLKYGCTRLEIGVQSLYEDVARDTNRGHTVRSVCETFAVSKDAGYKVVSHMMPDLPNVGMERDIEQFKEYFENPDFRTDGLKIYPTLVIRGTGLYELWKTGRYKSYSANALVDLVARILALVPPWTRIYRVQRDIPMPLVTSGVDNGNLRELALARMKDLGTTCRDVRTREVGIQEVHHKVQPDQVELIRRDYYANGGWETFLSYEDPKKDILIGLLRLRKASKKYTYRKEFTSQRTSIVRELHVYGSVVPLHSRDPRKFQHQGFGTLLMEEAERIAKEEHGSEKISVISGVGVRNYYGKLGYELDGPYMSKRI
notes: Elp3, Elongator subunit 3, S. cerevisiae; Carries a reconstituted Fe/S cluster; also called ScElp3H6
B2: endogenous Elp3 (enzyme, UniProt Q02908 1-557, looked up)
chain: B1 chain
notes: Elp3, S. cerevisiae, endogenous protein; source: endogenous, S. cerevisiae strains BS1173 and BSY2369, co-purified with Elp1-TAP or Elp6-TAP
B3: endogenous Elp4 (natural protein, UniProt Q02884 1-456, looked up)
chain: MSFRKRGEILNDRGSGLRGPLLRGPPRTSSTPLRTGNRRAPGNVPLSDTTARLKKLNIADESKTKMGLDSSHVGVRPSPATSQPTTSTGSADLDSILGHMGLPLGNSVLVEEQSTTEFHSILGKLFAAQGIVHNRISDSSADKTRNGDTHVIVLSLNQMFAKELPGIYKGSRKQMKKNLISEEESKVTVQNLNETQRSTPSRYKDLKIAWKYKLADEKRLGSPDRDDIQQNSEYKDYNHQFDITTRLMPAPIASELTFIAPTQPVSTILSQIEQTIKRNDKKLIRIVIPSLLHPAMYPPKMFESSEIIGLMHGVRSLVKKYYERVVLFASISIDIITPPLLVLLRNMFDSVINLEPFNQEMTEFLERVYKSQPGKIQHGLVHILKLPVFTDRGEMRVLKSEWAFKNGRKKFEIEQWGIPVDDAEGSAASEQSHSHSHSDEISHNIPAKKTKISLDY
notes: Elp4, S. cerevisiae, endogenous protein; source: endogenous, S. cerevisiae strains BS1173 and BSY2369, co-purified with Elp1-TAP or Elp6-TAP
B4: synthetic peptide of the conserved N-terminal region of Elp4 (aa1–27) (peptide, UniProt Q02884 1-27, looked up)
peptide: MSFRKRGEILNDRGSGLRGPLLRGPPR
notes: Elp4, S. cerevisiae, residues 1–27; source: synthetic peptide (Peptide Specialty Laboratories, Germany)
B5: synthetic peptide of the conserved N-terminal region of Elp4 (aa1–10) (peptide, UniProt Q02884 1-10, looked up)
peptide: MSFRKRGEIL
notes: Elp4, S. cerevisiae, residues 1–10; source: synthetic peptide (Peptide Specialty Laboratories, Germany)

For experiment [1], the target named is T1, GST-tagged full-length Elp1. As to the kind of experiment: pull-down; GST pull-down: 20 μg GST-tagged protein and increasing amounts of untagged partner with glutathione Sepharose, 2 h at 4°C, 20 mM Tris pH 7.5, 150 mM NaCl, 5 mM DTT, 0.1% Tween-20; five washes; SDS–PAGE, Coomassie. The following applies: both partners purified.
The target in experiment [2] is T2, endogenously TAP-tagged Elp1. Briefly: tandem-affinity purification (SDS–PAGE); endogenous TAP-tagged bait from yeast lysate; IgG Sepharose, TEV elution, Calmodulin Sepharose, EGTA elution; HEPES pH 7.9, 125 mM NaCl. Conditions: partners not purified.
The target of the experiment “endogenous Elp3” is B2. Briefly: cross-linking; XL-MS of purified Elongator (Elp1-TAP sample, 1 mg/ml) with isotope-coded DSS or DSG, 0.5–2 mM, 30 min at 37°C; xQuest/xProphet, ld score at least 30. The following applies: both partners purified.
Experiment [3] deals with T3, purified N-terminal region of Elp1. Briefly: ITC; VP-ITC; 20 mM Tris–HCl pH 7.5, 150 mM NaCl, 2 mM β-mercaptoethanol; 10 μM in the cell, 100 μM in the syringe. The following applies: both partners purified.

As to B1, in experiment [1], the binding result was “binds”. For the molecule B2, in experiment [2], the binding result is given as “binds”. With B3, the binding result (in the experiment with endogenous Elp3; in experiment [2]) was “binds” in each case. Take B4: in experiment [3], the Kd was 1600 ± 400 nM. On the same count and under the same terms, with B5 the figure was 2700 ± 300 nM.
